The target in one experiment is T1, Mouse ASGR-1 (mouse, UniProt P34927 1-284).
T1 construct: Expressed on HEK 293 cells or as membrane prep on beads; cDNA GenBank BC022106.1; also called muASGR-1; mASGR-1
T1 sequence: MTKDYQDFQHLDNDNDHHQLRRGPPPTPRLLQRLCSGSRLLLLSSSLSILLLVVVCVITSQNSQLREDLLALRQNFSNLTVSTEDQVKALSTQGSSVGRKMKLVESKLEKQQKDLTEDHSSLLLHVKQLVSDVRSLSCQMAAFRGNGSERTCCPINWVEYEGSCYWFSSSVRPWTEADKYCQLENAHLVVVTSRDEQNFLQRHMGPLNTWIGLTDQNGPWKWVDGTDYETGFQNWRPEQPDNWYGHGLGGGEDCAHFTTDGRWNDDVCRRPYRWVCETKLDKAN
Put plainly: FACS on transfected HEK 293 cells or membrane preps on beads; binding = signal at least 2x irrelevant IgG. The protocol:
(§1) Human ASGR-1-specific, ligand competing antibody samples were tested for binding to ASGR-1 from other species (cynomologus monkey ASGR-1, mouse ASGR-1, rat ASGR-1, dog ASGR-1, and pig ASGR-1) as well as to human ASGR-2 in FACS binding assays at normalized antibody concentrations. For cell-based assays, HEK 293 cells expressing the appropriate antigen of interest were mixed with antibody sample or controls, incubated for 1 hour at 4° C., and then washed twice. Cells with bound antibody were then incubated with Alexa Fluor® 647 IgG Fc fragment-specific detection antibody and 7-AAD viability stain for 15 minutes at 4° C., washed once and resuspended in FACS buffer. Samples were analyzed using a BD Accuri™ Flow Cytometer and an Intellicyt HyperCyt Autosampler. As a negative control, supernatants and controls were also screened against HEK 293 cells transfected with empty parental vector. […] For membrane-prep binding assays, ASGR-1 species specific membrane preps were used to coat LumAvidin® microspheres (beads) and tested for binding to selected hybridoma supernatants or controls. Briefly, ASGR-1 species specific membrane preps were incubated with streptavidin-coated LumAvidin® beads for 45 minutes in the dark at room temperature and washed twice. Beads were resuspeneded in FACS buffer containing Stabilguard®. Antigen-bound beads were then incubated with normalized antibody sample for 1 hour in the dark at room temperature, washed twice, incubated with Alexa Fluor® 488 IgG Fc fragment-specific detection antibody for 15 minutes in the dark at room temperature, washed once and finally resuspended in FACS buffer. Samples were analyzed using an Intellicyt iQue™ Screener Platform. FACS buffer supplemented with 1 mM Calcium Chloride was used in all steps. As a negative control, supernatants and controls were also screened against a non-ASGR-1 antigen membrane prep coated on the LumAvidin® beads.

A further experiment deals with T2, Human ASGR-2 (human, UniProt P07307 1-311).
T2 construct: Expressed on HEK 293 cells; cDNA GenBank NM_080913.3; also called huASGR-2; hASGR-2
T2 sequence: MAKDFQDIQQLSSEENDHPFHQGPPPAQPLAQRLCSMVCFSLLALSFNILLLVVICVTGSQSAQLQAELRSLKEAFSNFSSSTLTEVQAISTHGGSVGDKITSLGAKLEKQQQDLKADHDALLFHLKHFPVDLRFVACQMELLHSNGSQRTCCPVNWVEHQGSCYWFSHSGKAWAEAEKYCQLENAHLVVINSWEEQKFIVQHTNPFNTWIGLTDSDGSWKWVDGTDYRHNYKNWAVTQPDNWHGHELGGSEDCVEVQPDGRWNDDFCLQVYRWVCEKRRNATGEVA
Nature of the experiment: FACS on transfected HEK 293 cells; binding = signal at least 2x irrelevant IgG. The method, then:
as §1

The next experiment has as its target T3, Pig ASGR-1 (pig).
T3 construct: Expressed on HEK 293 cells or as membrane prep on beads; cDNA GenBank NM_001244458
T3 chain: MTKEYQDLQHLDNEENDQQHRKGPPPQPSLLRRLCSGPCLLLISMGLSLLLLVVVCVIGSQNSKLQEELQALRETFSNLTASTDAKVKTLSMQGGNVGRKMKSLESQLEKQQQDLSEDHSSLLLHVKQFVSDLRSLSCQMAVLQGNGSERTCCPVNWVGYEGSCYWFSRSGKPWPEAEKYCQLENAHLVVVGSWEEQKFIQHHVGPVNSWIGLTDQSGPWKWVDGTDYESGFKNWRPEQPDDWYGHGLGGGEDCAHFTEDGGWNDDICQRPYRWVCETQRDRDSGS
Nature of the experiment: FACS on transfected HEK 293 cells or membrane preps on beads; Y = signal at least 2x irrelevant IgG. The protocol: as §1

The next experiment addresses T4, Cyno ASGR-1 (cynomolgus monkey, UniProt P07306 1-291 (human entry)).
T4 construct: Expressed on HEK 293 cells or as membrane prep on beads; cDNA from XP_005582755; also called cynomologus monkey ASGR-1
T4 chain: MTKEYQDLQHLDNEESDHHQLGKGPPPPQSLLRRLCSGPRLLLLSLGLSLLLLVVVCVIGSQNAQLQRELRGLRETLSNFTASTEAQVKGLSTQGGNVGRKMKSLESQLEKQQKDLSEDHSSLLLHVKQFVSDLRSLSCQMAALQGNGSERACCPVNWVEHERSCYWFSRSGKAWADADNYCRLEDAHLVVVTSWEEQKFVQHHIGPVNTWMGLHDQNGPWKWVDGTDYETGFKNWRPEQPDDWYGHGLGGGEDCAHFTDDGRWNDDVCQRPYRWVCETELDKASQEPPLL
The description is as above. The method, then:
as §1

Where a chain is given by its changes, count along the chain named.

B1: 194A4 (antibody, V domains shown)
VH: QVQLVQSGTEVKKPGASLKVSCKASGYTFTVYYLNWVRQAPGQGLEWMGWINPNSGGTNYAQKFQGRVTMTRDTSISTAYMELSRLRSDDTAVYYCARGYDILTGWGQGTLVTVSS
VL: EIVLTQSPGTLSLSPGERATLSCRASRGVSNIYLAWYQQKPGQAPRLLIYGASNRATGIPDRFSGSGSGTDFTLTISRLEPEDFAVYYCQHNDYSMFTFGPGTKVDIK
notes: Tested as hybridoma supernatant at normalized concentration
Regarding B1, the binding result in the experiment with Mouse ASGR-1 is on record as “no binding”; with Human ASGR-2 it was “no binding”; with Pig ASGR-1, “binds”; with Cyno ASGR-1 it was “binds”.

B2: 6G7 (antibody, V domains shown)
VH: QVQLVESGGGVVQPGRSLRLSCAASGFTFSSYGMHWVRQTPGKGLEWVAIISYVGKNKYYADSVKGRFTISRDNSKNTLYLQMNSLRAEDTAVYYCARRGNSYGGYGMDVWGQGTTVTVSS
VL: DIQMTQSPSSRSASVGDRVTITCQASQDISNYLNWCQQKPGKALKLLIYDASTLETGVPSRFSGSGSGTDFTFTISSVQPEDIATYYCQQYDNVPITFGQGTRLEIK
notes: as for B1
For the molecule B2, the binding result with Mouse ASGR-1 is “no binding”; in the experiment with Cyno ASGR-1 it was “binds”.

B3: 4B1 (antibody, V domains shown)
VH: QVQLQESGPGLVKPSETLSLTCSVSGDSISSYSWSWIRQPAGKGLEWIGRIYTSGSTNYIPSLKSRITMSVDTSKKQFSLKLSSVTAADTAVYYCARDLKSSGCLFFDYWGQGTLVTVSS
VL: DIQMTQSPSSLSASVGDRVTITCRASHTIRTYLNWYQQKPGKAPKLLIYAASSLQSGVPSRINGSGSGTDFTLTITNLQPEDFATYYCQQSYNISFTFGPGTKVDIK
notes: as for B1
On to B3, for which the figures for the binding result in the experiment with Human ASGR-2, with Pig ASGR-1 and with Cyno ASGR-1 were “no binding”, “binds” and “binds”, respectively.

B4: 198D2 (antibody, V domains shown)
VH: QVQLVESGGGVVQPGRSLRLSCAASGFTFRSYGMHWVRQAPGKGLEWVAVIIYDGSYKYYADSVKGRFTISRDNSKNTLYLQMNSLRAEDTAVYYCARTYSGGMDVWGQGTTVTVSS
VL: QSVLTQPPSVSAAPGQKVTISCSGSSSNIGSNYVSWYQQLPGTAPKVLIYDNNKRPSGIPDRFSGSKSGTSATLGITGLQTGDEADYYCGTWDSRLNVGVFGGGTKLTVL
notes: as for B1
On to B4, for which the binding result with Mouse ASGR-1 is on record as “no binding”; with Human ASGR-2, “no binding”; in the experiment with Pig ASGR-1, “binds”; with Cyno ASGR-1, “binds”.

B5: 184E7 (antibody, V domains shown)
VH: QVQLVQSGAEVKTPGASVKVSCRASGYTFTSYNMHWVRQVPGQGLEWMGWINPNNGGSNYTQKFQGRVTMTRDTSISTAYMELSRLRSDDTAVYYCARKFGDWGQGTLVTVSS
VL: DIQMTQSPSSRSASIGERVTITCRASQGISNYLAWIQQKPGTAPKSLIYAASSLQSGVSSRFSGSGFGTDFTITISSVQREDFATYYCQQYNGYPFTFGHGTKVDIK
notes: as for B1
As to B5, the binding result in the experiment with Human ASGR-2 is on record as “no binding”; with Pig ASGR-1, “binds”; in the experiment with Cyno ASGR-1 it was “binds”.

B6: 25A4 (antibody, V domains shown)
VH: QVLLVQSGAEVKRPGASVKVSCKASGYTFTNYDINWVRQATGQGLEWMGWMYPNSGNTGYAQKFQGRVTMTRNTSISTAYMELSSLRSEDTAVYYCASSSGWYYFDYWGQGTLVTVSS
VL: DIVMTQFPDSLAVSLGERATIKCKSSQSVLYSSHNNNYLAWYQQKPGQPPKLLLYWASTRESGVPDRFSGSGSGTEFTLTISSLEAEDVAVYYCQQYYSTPPTFGQGTKVEIK
notes: as for B1
As for B6, the binding result with Mouse ASGR-1 is listed as “no binding”; with Human ASGR-2, “no binding”; in the experiment with Pig ASGR-1, “binds”; in the experiment with Cyno ASGR-1, “binds”.

B7: 26C4 (antibody, V domains shown)
VH: B6 VH with L3Q, R13K, T41S, Y52N, K63R, S77N
VL: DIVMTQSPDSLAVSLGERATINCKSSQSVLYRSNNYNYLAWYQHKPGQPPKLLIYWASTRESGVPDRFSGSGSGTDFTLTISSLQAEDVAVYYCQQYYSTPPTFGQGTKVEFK
notes: as for B1
B7: the binding result in the experiment with Mouse ASGR-1 is listed as “no binding”; with Human ASGR-2 it was “no binding”; in the experiment with Pig ASGR-1, “binds”; with Cyno ASGR-1, “binds”.

B8: 29H8 (antibody, V domains shown)
VH: B6 VH with L3Q, K12Q, R13K, Y52N, K63R, T78A
VL: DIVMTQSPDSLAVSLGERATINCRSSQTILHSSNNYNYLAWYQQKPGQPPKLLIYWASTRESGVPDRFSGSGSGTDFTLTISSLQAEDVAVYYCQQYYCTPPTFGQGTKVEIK
notes: as for B1
For the molecule B8, the binding result in the experiment with Mouse ASGR-1 is “no binding”; with Human ASGR-2, “no binding”; with Pig ASGR-1 it was “binds”; with Cyno ASGR-1, “binds”.

B9: 5E5 (antibody, V domains shown)
VH: QVQLVESGGGVVQPGRSLRLSCAASGFTFSNYVMHWVRQAPGKGLEWVAVIWYDGSNKYYADSVKGRFTISRDNSKNTLYLQMNSLRAEDTAVYYCTREVYSSGWYDYGMDVWGQGTTVTVSS
VL: DIQMTQSPSSLSASVGDRVTITCRASQGIRNDLGWYQQKPGKAPKRLIYAASSLQSGVPSRFSGSGSGTEFTLTISSLQPEDFATYYCLQHYSYPRTFGQGTKVEVK
notes: as for B1
B9: the results for the binding result in the experiment with Mouse ASGR-1, in the experiment with Human ASGR-2 and with Cyno ASGR-1 were “no binding”, “no binding” and “binds”, respectively.

B10: 4H6 (antibody, V domains shown)
VH: QVQLVQSGAEVKKPGASVKVSCKASGYTFTDYYLHWVRQAPGQGLEWMGWIHPNSGGTNYAQKFQGRVTMTRDTSISTAYMGLSSLRSDDTAVYYCARDGTSSFDYWGQGTLVTVSS
VL: DIQMTQSPSSVSASVGDRVTITCRASQGISRWLAWYQQKPGKAPKLLIYGASSLQSGVPSRFSGSGSGTDFTLTISSLQPEDFAIYYCQQANSFPFTFGPGTKVDIK
notes: as for B1
As to B10, the binding result with Human ASGR-2 was “no binding”; in the experiment with Pig ASGR-1, “binds”; with Cyno ASGR-1, “binds”.

B11: 72G9 (antibody, V domains shown)
VH: EVQLVESGGGLVKPGGSLRLSCAASGFTFSSYSMNWVRQAPGKGLEWVSSISGSSSYIYYADSVKGRFTISRDNAKNSLYLQMNSLRAEDTAVYFCARGGSRGFDPWGQGTLVTVSS
VL: B10 VL with V11L, G28S, S30T, R31S, W32Y, A34N, G50T, I85T, A91S, N92H
notes: as for B1
On to B11, for which the binding result with Human ASGR-2 is listed as “no binding”; with Pig ASGR-1, “binds”; with Cyno ASGR-1 it was “binds”.

B12: 12D2 (antibody, V domains shown)
VH: EVQLVESGGGLVKPGGSLRLSCAASGFTFSSYSMNWVRQAPGKGLEWVSSISSSSSYIYYADSVKGRFTISRDNAKNSLYLQMNSLRAEDTAVYYCARLGDYWGQGTLVAVSS
VL: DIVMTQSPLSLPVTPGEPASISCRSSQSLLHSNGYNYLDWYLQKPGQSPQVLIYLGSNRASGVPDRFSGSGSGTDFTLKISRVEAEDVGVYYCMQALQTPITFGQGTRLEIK
notes: as for B1
Turning to B12, the binding result with Human ASGR-2 is given as “no binding”; in the experiment with Pig ASGR-1, “binds”; with Cyno ASGR-1, “binds”.

The values are drawn from patent publication US20190248902A1 (published 2019).
